Laboratory results as given in PMC5717350, “The human CTF4-orthologue AND-1 interacts with DNA polymerase α/primase via its unique C-terminal HMG box” (Open Biology, 2017).
Residue numbers refer to the chain shown, from its start.

T1: GST-BNTD (1–78) A47E (human, UniProt Q14181 1-78, A47E)
T1 construct: human DNA polymerase α B subunit, residues 1-78; also called A47E mutant GST-BNTD; source: E. coli Rosetta2(DE3), purified (Ni-NTA agarose)
T1 sequence (looked up): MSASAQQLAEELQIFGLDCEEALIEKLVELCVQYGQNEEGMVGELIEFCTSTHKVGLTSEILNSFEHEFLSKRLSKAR

T2: GST-BNTD (B subunit amino acids 1–78) (human, UniProt Q14181 1-78)
T2 construct: human DNA polymerase α B subunit, residues 1-78 (four-helix bundle N-terminal domain); also called GST-B(1–78); B N-terminal domain; source: E. coli Rosetta2(DE3), purified (Ni-NTA agarose)
T2 sequence (looked up): T1 sequence (looked up) with E47A

B1: B (1–78), free BNTD used as competitor (domain or fragment, human, UniProt Q14181 1-78, looked up)
chain: T1 sequence (looked up) with E47A
notes: human DNA polymerase α B subunit, residues 1-78; it names the protein 'B (1–78)' and 'free BNTD'; also called purified BNTD; source: E. coli Rosetta2(DE3), purified
B2: GST-B subunit (1–156) (domain or fragment, human, UniProt Q14181 1-156, looked up)
chain: MSASAQQLAEELQIFGLDCEEALIEKLVELCVQYGQNEEGMVGELIAFCTSTHKVGLTSEILNSFEHEFLSKRLSKARHSTCKDSGHAGARDIVSIQELIEVEEEEEILLNSYTTPSKGSQKRAISTPETPLTKRSVSTRSPHQLLSPSSFSPSAT
notes: human DNA polymerase α B subunit, residues 1-156; also called GST-B fusion protein 1–156; source: E. coli Rosetta2(DE3), purified (Ni-NTA agarose)
B3: Full-length His10-myc-tagged AND-1 (1–1129) (natural protein, human, UniProt O75717 1-1129, looked up)
chain: MPATRKPMRYGHTEGHTEVCFDDSGSFIVTCGSDGDVRIWEDLDDDDPKFINVGEKAYSCALKSGKLVTAVSNNTIQVHTFPEGVPDGILTRFTTNANHVVFNGDGTKIAAGSSDFLVKIVDVMDSSQQKTFRGHDAPVLSLSFDPKDIFLASASCDGSVRVWQISDQTCAISWPLLQKCNDVINAKSICRLAWQPKSGKLLAIPVEKSVKLYRRESWSHQFDLSDNFISQTLNIVTWSPCGQYLAAGSINGLIIVWNVETKDCMERVKHEKGYAICGLAWHPTCGRISYTDAEGNLGLLENVCDPSGKTSSSKVSSRVEKDYNDLFDGDDMSNAGDFLNDNAVEIPSFSKGIINDDEDDEDLMMASGRPRQRSHILEDDENSVDISMLKTGSSLLKEEEEDGQEGSIHNLPLVTSQRPFYDGPMPTPRQKPFQSGSTPLHLTHRFMVWNSIGIIRCYNDEQDNAIDVEFHDTSIHHATHLSNTLNYTIADLSHEAILLACESTDELASKLHCLHFSSWDSSKEWIIDLPQNEDIEAICLGQGWAAAATSALLLRLFTIGGVQKEVFSLAGPVVSMAGHGEQLFIVYHRGTGFDGDQCLGVQLLELGKKKKQILHGDPLPLTRKSYLAWIGFSAEGTPCYVDSEGIVRMLNRGLGNTWTPICNTREHCKGKSDHYWVVGIHENPQQLRCIPCKGSRFPPTLPRPAVAILSFKLPYCQIATEKGQMEEQFWRSVIFHNHLDYLAKNGYEYEESTKNQATKEQQELLMKMLALSCKLEREFRCVELADLMTQNAVNLAIKYASRSRKLILAQKLSELAVEKAAELTATQVEEEEEEEDFRKKLNAGYSNTATEWSQPRFRNQVEEDAEDSGEADDEEKPEIHKPGQNSFSKSTNSSDVSAKSGAVTFSSQGRVNPFKVSASSKEPAMSMNSARSTNILDNMGKSSKKSTALSRTTNNEKSPIIKPLIPKPKPKQASAASYFQKRNSQTNKTEEVKEENLKNVLSETPAICPPQNTENQRPKTGFQMWLEENRSNILSDNPDFSDEADIIKEGMIRFRVLSTEERKVWANKAKGETASEGTEAKKRKRVVDESDETENQEEKAKENLNLSKKQKPLDFSTNQKLSAFAFKQE
notes: the oligomeric state was measured only on the SepB constructs; also called His-myc-AND-1; human CTF4-orthologue AND-1; source: Sf9 insect cells (baculovirus, MultiBac), purified (Ni-NTA, Q-Sepharose)
B4: MBP-tagged AND-1 HMG box (1017–1076), wild type (domain or fragment, human, UniProt O75717 1017-1076, looked up)
chain: RPKTGFQMWLEENRSNILSDNPDFSDEADIIKEGMIRFRVLSTEERKVWANKAKGETASE
notes: human AND-1 HMG box, residues 1017-1076; also called AND-1(1017–1076); source: E. coli Rosetta2(DE3), purified (Ni-NTA, Superdex 200)
B5: AND-1 (329–826), SepB domain (domain or fragment, human, UniProt O75717 329-826, looked up)
chain: GDDMSNAGDFLNDNAVEIPSFSKGIINDDEDDEDLMMASGRPRQRSHILEDDENSVDISMLKTGSSLLKEEEEDGQEGSIHNLPLVTSQRPFYDGPMPTPRQKPFQSGSTPLHLTHRFMVWNSIGIIRCYNDEQDNAIDVEFHDTSIHHATHLSNTLNYTIADLSHEAILLACESTDELASKLHCLHFSSWDSSKEWIIDLPQNEDIEAICLGQGWAAAATSALLLRLFTIGGVQKEVFSLAGPVVSMAGHGEQLFIVYHRGTGFDGDQCLGVQLLELGKKKKQILHGDPLPLTRKSYLAWIGFSAEGTPCYVDSEGIVRMLNRGLGNTWTPICNTREHCKGKSDHYWVVGIHENPQQLRCIPCKGSRFPPTLPRPAVAILSFKLPYCQIATEKGQMEEQFWRSVIFHNHLDYLAKNGYEYEESTKNQATKEQQELLMKMLALSCKLEREFRCVELADLMTQNAVNLAIKYASRSRKLILAQKLSELAVEKAAELTAT
notes: human AND-1, residues 329-826 (SepB domain); residues 329-420 and 824-826 not in the final crystallographic model; Trimer arises from crystallographic symmetry (one protomer per asymmetric unit); also called AND-1 SepB
B6: GST-Pol α (148–171), wild type (domain or fragment, human)
chain: DKAVDLSKDGLLGDILQDLNTETP
notes: also called GST-Pol α CIP; GST-tagged Pol α CIP; source: E. coli Rosetta2(DE3), purified (Ni-NTA agarose); not shown: His tag (from the purification on Ni-NTA)
B7: GST-B subunit (1–104) (domain or fragment, human, UniProt Q14181 1-104, looked up)
chain: MSASAQQLAEELQIFGLDCEEALIEKLVELCVQYGQNEEGMVGELIAFCTSTHKVGLTSEILNSFEHEFLSKRLSKARHSTCKDSGHAGARDIVSIQELIEVEE
notes: human DNA polymerase α B subunit, residues 1-104; also called GST-B fusion protein 1–104; source: E. coli Rosetta2(DE3), purified (Ni-NTA agarose)
B8: AND-1 SepB (336–826) (domain or fragment, human, UniProt O75717 336-826, looked up)
chain: GDFLNDNAVEIPSFSKGIINDDEDDEDLMMASGRPRQRSHILEDDENSVDISMLKTGSSLLKEEEEDGQEGSIHNLPLVTSQRPFYDGPMPTPRQKPFQSGSTPLHLTHRFMVWNSIGIIRCYNDEQDNAIDVEFHDTSIHHATHLSNTLNYTIADLSHEAILLACESTDELASKLHCLHFSSWDSSKEWIIDLPQNEDIEAICLGQGWAAAATSALLLRLFTIGGVQKEVFSLAGPVVSMAGHGEQLFIVYHRGTGFDGDQCLGVQLLELGKKKKQILHGDPLPLTRKSYLAWIGFSAEGTPCYVDSEGIVRMLNRGLGNTWTPICNTREHCKGKSDHYWVVGIHENPQQLRCIPCKGSRFPPTLPRPAVAILSFKLPYCQIATEKGQMEEQFWRSVIFHNHLDYLAKNGYEYEESTKNQATKEQQELLMKMLALSCKLEREFRCVELADLMTQNAVNLAIKYASRSRKLILAQKLSELAVEKAAELTAT
notes: source: E. coli Rosetta2(DE3), purified (Ni-NTA, Q-Sepharose, TEV cleavage, Superdex 200)

Tests used:
[1] = molecular target: B3; test: pull-down; competition: Pol α/primase bound to 100 µl Strep-Tactin Superflow resin, 1 nmol AND-1 added together with 100 nmol B (1–78) or Pol α CIP peptide 156–170; eluted with 10 mM desthiobiotin; Coomassie and anti-His western blot; conditions: both partners purified
[2] = molecular target: B3; test: pull-down; GST-B fusion proteins (in figure 6a also GST-Pol α CIP, equimolar) bound to 100 µl glutathione agarose, 2.2 nmol AND-1 (1–1129, 316–1129 or 336–826) added as prey; PD buffer, 2.5 mg/ml BSA, 4°C; Coomassie, anti-His western blot in figure 6a; conditions: both partners purified
[3] = molecular target: T3, Pol α/primase, full-length heterotetrameric complex (Polα-B-PriS-PriL) (human, UniProt P09884 1-1462; Q14181 1-598; P49642 1-420; P49643 1-509); test: pull-down; StrepII-tagged Pol α/primase bound to 100 µl Strep-Tactin Superflow resin, about 2.4 nmol AND-1 added as prey; PD buffer (PBS, 5% glycerol, 0.5 mM TCEP, 0.2% Igepal), 2.5 mg/ml BSA, 4°C; eluted with 10 mM desthiobiotin; Coomassie and anti-His western blot; conditions: both partners purified
T3 construct: human DNA polymerase α catalytic subunit, residues 1-1462; human DNA polymerase α B subunit, residues 1-598; human primase small subunit PriS, residues 1-420; human primase large subunit PriL, residues 1-509; The wording 'Double StrepII-tagged human DNA polymerase α (1–1462) and its B subunit (1–598)' leaves open whether the B subunit is tagged too; the tag is written on Pol α only; also called …

GST-BNTD (1–78) A47E = molecular target: T1, GST-BNTD (1–78) A47E; test: pull-down; MBP-AND-1 constructs bound to 100 µl amylose resin, 25 nmol GST-B added as prey; PD buffer, 2.5 mg/ml BSA, 4°C; eluted with 20 mM maltose; Coomassie; conditions: both partners purified
[4] = molecular target: T2, GST-BNTD (B subunit amino acids 1–78); test: as above; conditions: both partners purified
[5] = molecular target: the molecule itself; test: crystal structure; AND-1 329–826 crystallised at 9 mg/ml; space group F432, one protomer per asymmetric unit, trimer by crystallographic symmetry; 2.5 Å
AND-1 SepB (336–826) = molecular target: B8; test: pull-down; GST-Pol α fusion proteins bound to 100 µl glutathione agarose, 20 nmol AND-1 SepB added as prey; PD buffer, 2.5 mg/ml BSA, 4°C; eluted with 20 mM reduced glutathione; Coomassie; conditions: both partners purified
[6] = molecular target: the molecule itself; test: SEC-MALS; 100 µl AND-1 336–826 at 2–4 mg/ml on Superdex S200 10/300 GL; 25 mM HEPES pH 7.0, 200 mM NaCl

T3 sequence (P09884 whole entry, chain 1 of 3, the tested form may be a part): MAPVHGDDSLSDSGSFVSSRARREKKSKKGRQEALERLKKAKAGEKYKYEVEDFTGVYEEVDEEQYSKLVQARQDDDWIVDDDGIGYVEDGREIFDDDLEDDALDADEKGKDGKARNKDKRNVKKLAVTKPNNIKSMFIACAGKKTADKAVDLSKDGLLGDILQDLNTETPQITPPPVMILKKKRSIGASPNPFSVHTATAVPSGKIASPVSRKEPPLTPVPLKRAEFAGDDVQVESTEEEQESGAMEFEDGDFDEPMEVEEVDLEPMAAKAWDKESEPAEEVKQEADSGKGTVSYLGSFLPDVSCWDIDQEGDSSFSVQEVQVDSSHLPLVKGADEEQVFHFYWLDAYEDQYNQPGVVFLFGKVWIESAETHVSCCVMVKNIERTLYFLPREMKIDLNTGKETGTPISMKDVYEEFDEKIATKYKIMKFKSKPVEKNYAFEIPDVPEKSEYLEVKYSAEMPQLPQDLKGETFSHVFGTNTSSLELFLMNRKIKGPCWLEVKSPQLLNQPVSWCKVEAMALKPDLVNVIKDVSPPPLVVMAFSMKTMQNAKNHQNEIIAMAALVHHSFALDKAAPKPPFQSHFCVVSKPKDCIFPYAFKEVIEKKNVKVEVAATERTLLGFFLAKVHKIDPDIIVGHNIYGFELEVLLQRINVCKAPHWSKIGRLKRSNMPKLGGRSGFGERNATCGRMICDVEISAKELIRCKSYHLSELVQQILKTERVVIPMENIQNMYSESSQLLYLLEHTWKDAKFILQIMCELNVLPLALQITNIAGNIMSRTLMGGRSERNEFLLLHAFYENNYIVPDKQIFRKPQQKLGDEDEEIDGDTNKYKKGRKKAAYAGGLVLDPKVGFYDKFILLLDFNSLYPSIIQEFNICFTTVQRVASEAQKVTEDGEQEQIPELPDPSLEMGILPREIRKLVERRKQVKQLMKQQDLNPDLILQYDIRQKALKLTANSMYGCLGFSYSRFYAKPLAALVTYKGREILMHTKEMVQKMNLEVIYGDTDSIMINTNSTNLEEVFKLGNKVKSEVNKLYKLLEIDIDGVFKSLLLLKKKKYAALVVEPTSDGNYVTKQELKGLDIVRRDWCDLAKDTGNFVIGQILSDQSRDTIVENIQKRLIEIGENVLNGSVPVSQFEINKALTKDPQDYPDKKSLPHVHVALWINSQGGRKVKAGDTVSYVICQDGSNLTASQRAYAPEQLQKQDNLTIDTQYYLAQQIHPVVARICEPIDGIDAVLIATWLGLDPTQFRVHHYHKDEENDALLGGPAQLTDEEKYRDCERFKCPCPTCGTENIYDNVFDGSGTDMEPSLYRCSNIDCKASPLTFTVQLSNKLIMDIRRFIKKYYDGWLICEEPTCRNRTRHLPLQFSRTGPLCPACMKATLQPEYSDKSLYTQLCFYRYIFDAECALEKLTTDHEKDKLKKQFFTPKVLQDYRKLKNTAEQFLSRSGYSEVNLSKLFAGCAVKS
T3 sequence (P49642 whole entry, chain 3 of 3, the tested form may be a part): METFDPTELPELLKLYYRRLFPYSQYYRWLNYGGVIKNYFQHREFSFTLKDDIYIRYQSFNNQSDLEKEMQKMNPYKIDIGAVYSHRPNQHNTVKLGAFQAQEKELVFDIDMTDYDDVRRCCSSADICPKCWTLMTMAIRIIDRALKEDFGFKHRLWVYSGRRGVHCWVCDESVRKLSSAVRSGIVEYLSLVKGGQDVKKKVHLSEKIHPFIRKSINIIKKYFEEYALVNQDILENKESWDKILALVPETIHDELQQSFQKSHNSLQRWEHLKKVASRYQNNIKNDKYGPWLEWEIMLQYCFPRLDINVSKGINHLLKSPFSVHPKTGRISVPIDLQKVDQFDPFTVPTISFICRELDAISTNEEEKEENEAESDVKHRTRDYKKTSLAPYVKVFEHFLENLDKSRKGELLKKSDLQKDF
T3 sequence (P49643 whole entry, chain 4 of 3, the tested form may be a part): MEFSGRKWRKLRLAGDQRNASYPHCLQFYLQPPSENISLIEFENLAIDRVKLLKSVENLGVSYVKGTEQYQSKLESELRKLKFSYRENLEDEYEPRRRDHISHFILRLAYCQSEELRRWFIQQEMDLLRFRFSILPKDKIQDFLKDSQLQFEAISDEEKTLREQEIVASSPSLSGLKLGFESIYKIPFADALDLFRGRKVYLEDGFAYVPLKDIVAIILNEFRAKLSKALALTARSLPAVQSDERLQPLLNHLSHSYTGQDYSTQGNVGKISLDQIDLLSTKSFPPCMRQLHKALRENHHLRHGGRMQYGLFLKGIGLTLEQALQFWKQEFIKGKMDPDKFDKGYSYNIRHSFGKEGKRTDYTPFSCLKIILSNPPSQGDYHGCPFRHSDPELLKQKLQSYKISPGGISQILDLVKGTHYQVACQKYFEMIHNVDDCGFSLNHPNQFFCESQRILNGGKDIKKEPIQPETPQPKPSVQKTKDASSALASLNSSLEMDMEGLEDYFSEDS

B1: binds [1].

B2: binds [2].

B3: binds [3].

B4: binds (GST-BNTD (1–78) A47E); binds [4].

B5: binds [5].

B6: binds (AND-1 SepB (336–826)).

B7: binds [2].

For B8, the “stoichiometry N” value [6] was 3.
